Biological target: TbRIF5-BB2-HA (T. brucei)
Experiment: co-IP; cytoplasmic extracts of cells expressing TbDCL1-BB2-FLAG and TbRIF5-BB2-HA; immunoprecipitation with anti-FLAG or anti-HA antibody; Western blot for the common BB2 epitope

Substance: TbDCL1-BB2-FLAG (enzyme)
- percent of TbDCL1 in the precipitate: 50%
